Blank lines part the entries; values can stand above or below the binder they belong to.
Experiments:
Assay in all cases: pull-down
[1] = target: PDZ2 Domain-HaloTag fusion protein (PSD-95 PDZ2) on HaloLink resin (Mus musculus, UniProt Q62108 155-249)
[2] = target: HaloTag-PDZ1+PDZ2 fusion protein (PSD-95 PDZ1-2) on HaloLink resin (Mus musculus, UniProt Q62108 61-249)
[3] = target: MBP fusion protein containing an N-terminal PDZ2 Tag (Mus musculus, UniProt Q62108 155-249)
[4] = target: MBP fusion protein containing a C-terminal PDZ2 Tag (Mus musculus, UniProt Q62108 155-249)
[5] = target: MBP-GST fusion protein containing an internal PDZ2 Domain Tag (Mus musculus, UniProt Q62108 155-249)
PDZ2 domain of PSD-95 = PDZ2 domain of PSD-95 (Mus musculus, UniProt Q62108 155-249)
[6] = target: PDZ3 Domain-HaloTag fusion protein (PSD-95 PDZ3) on HaloLink resin (Mus musculus, UniProt Q62108 302-402)
PDZ3 Domain-HaloTag fusion protein (PSD-95 PDZ3) on HaloLink resin, sequence (Q62108 302-402): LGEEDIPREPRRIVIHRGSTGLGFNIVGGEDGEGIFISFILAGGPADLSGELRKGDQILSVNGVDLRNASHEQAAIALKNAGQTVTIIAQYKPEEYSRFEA

MBP-GST fusion protein containing an internal PDZ2 Domain Tag, sequence (Q62108 155-249): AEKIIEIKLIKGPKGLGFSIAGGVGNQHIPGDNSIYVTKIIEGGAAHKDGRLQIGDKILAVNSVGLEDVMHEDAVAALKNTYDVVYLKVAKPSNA
MBP fusion protein containing an N-terminal PDZ2 Tag, sequence (Q62108 155-249): as above
MBP fusion protein containing a C-terminal PDZ2 Tag, sequence (Q62108 155-249): as above
PDZ2 domain of PSD-95, sequence (Q62108 155-249): as above
PDZ2 Domain-HaloTag fusion protein (PSD-95 PDZ2) on HaloLink resin, sequence (Q62108 155-249): as above
HaloTag-PDZ1+PDZ2 fusion protein (PSD-95 PDZ1-2) on HaloLink resin, sequence (Q62108 61-249): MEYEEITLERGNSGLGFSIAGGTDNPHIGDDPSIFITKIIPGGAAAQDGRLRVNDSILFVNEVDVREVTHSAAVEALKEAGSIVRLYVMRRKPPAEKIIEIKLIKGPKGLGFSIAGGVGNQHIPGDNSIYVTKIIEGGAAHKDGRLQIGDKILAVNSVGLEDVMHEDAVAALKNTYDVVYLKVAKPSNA

binding result [1]: binds | binding result [2]: binds | binding result [3]: binds | binding result [4]: binds | binding result [5]: binds | binding result (PDZ2 domain of PSD-95): binds
B1: SIESDV peptide (free GluN2B Peptide Ligand) (peptide)
peptide: SIESDV

binding result [6]: binds
B2: YKQTSV peptide (peptide)
peptide: YKQTSV

Source: PMC4024478 (Protein expression and purification, 2014)
